Common to all, as to assay: cross-linking; engineered disulfide bridge in purified EF1; overnight with 400 µM DTNB (oxidised), 10 mM DTT (reduced), 30 mM DTT (re-reduced); SDS-PAGE with non-oxidizing sample buffer, Coomassie; yield from the change of the γ-band, oxidized against reduced; immunoblots against α and γ
(In general: Immunoblotting shows a protein as a band on a membrane.)

Test [1] has as its target E. coli F1-ATPase subunit α with αP281C, in the cysteine-free EF1 mutant FH4 (Escherichia coli) (UniProt P0ABB0).
Test [2] addresses E. coli F1-ATPase subunit α with αP280C, in the cysteine-free EF1 mutant GH54 (Escherichia coli) (UniProt P0ABB0).
Test [3] addresses E. coli F1-ATPase subunit α with αE284C, in the cysteine-free EF1 mutant GH19 (Escherichia coli) (UniProt P0ABB0).

These results are taken from paper PMC3536650.

For “E. coli F1-ATPase subunit γ with γK109C and γI279C, in the cysteine-free EF1 mutant FH4 (natural protein)”, the cross-link yield in test [1] amounted to 85%.
As for “E. coli F1-ATPase subunit γ with γK109C, γA213C and γG282C, in the cysteine-free EF1 mutant GH54 (natural protein)”, in test [2], the cross-link yield was 90%.
With “E. coli F1-ATPase subunit γ with γK109C, γA213C and γL276C, in the cysteine-free EF1 mutant GH19 (natural protein)”, in test [3], the cross-link yield is above 95%.
